{"source": "patent US20230074735", "target": "Taq DNA polymerase (Thermus aquaticus) (UniProt P19821)", "sequence (P19821 whole entry)": "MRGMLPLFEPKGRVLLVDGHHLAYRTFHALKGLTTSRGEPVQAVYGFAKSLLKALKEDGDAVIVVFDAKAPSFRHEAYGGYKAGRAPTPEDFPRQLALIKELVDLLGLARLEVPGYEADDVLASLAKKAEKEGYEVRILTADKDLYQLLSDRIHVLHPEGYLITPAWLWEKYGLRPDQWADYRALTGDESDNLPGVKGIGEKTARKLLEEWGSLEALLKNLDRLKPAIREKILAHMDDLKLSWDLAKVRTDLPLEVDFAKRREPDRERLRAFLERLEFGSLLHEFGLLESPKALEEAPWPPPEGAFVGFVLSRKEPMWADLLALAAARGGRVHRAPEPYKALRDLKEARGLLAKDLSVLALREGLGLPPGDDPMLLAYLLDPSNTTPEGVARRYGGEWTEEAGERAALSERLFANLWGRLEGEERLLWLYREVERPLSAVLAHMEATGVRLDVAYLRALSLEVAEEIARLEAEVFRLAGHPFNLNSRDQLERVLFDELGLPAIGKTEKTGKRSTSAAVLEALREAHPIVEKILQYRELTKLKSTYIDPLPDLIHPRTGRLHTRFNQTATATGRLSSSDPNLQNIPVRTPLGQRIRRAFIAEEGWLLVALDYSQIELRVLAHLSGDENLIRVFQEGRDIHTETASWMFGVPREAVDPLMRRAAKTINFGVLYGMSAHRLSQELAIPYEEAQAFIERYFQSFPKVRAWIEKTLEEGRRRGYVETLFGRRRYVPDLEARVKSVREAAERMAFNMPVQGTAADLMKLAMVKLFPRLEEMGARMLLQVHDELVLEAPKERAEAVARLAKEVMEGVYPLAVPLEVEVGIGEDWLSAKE", "experiment": "inhibition", "settings": "contains RNA cleavage site; about half amplicon yield; activity increased to some degree with 10 uM Pb2+; mechanism unclear, possibly stem recognition by polymerase", "data": [{"substance": "GR5 DNAzyme (71 nt)", "values": [{"measurement": "activity (% amplicon vs polymerase only)", "result": 50}]}]}
